Molecular target: Hsp90alpha (UniProt P07900)
Test: FP filter
Conditions: 5-10-5 gapmer, cEt wings 1-5 and 16-20, 2'-deoxy gap, all C 5mC, full PS; nitrocellulose double-filter binding, printed as binding constant

For “CTGCTAGCCTCTGGATTTGA [Isis 586183 (PS/cEt)]”, the Kd was 19.7 nM.
